Substrate: N[C@@H](Cc1ccc(O)cc1)C(=O)O
Test: purified protein
Format: biochemical, Arabidopsis thaliana
Conditions: 0-8 mM tyrosine, 100 mM alpha-ketoglutarate, 0.2 mM PLP, 100 mM Tris-HCl pH 8.5, 30 C, 5 min, constant not given in text, figure only

Protein | Km | kcat
TAT1^A (accession CAM-61) (Arabidopsis thaliana) (protein) MENGATTTSTITIKGILSLLMESITTEEDEGGKRVISLGMGDPTLYSCFRTTQVSLQAVSDSLLSNKFHGYSPTVGLPQARRAIAEYLSRDLPYKLSQDDVFITSGCTQAIDVALSMLARPRANILLPRPGFPIYELCAKFRHLEVRYVDLLPENGWEIDLDAVEALADENTVALVVINPGNPCGNVYSYQHLMKIAESAKKLGFLVIADEVYGHLAFGSKPFVPMGVFGSIVPVLTLGSLSKRWIVPGWRLGWFVTTDPSGSFKDPKIIERFKKYFDILGGPATFIQAAVPTILEQTDESFFKKTLNSLKNSSDICCDWIKEIPCIDSSHRPEGSMAMMVKLNLSLLEDVSDDIDFCFKLAREESVILLPGTAVGLKNWLRITFAADATSIEEAFKRIKCFYLRHAKTQYPTI | 410 ± 30 µM | 45.85 ± 0.88 s⁻¹
TAT1 (Col-0, At5g53970.1; positive control) (Arabidopsis thaliana) (protein) MENGATTTSTITIKGILSLLMESITTEEDEGGKRVISLGMGDPTLYSCFRTTQVSLQAVSDSLLSNKFHGYSPTVGLPQARRAIAEYLSRDLPYKLSQDDVFITSGCTQAIDVALSMLARPRANILLPRPGFPIYELCAKFRHLEVRYVDLLPENGWEIDLDAVEALADENTVALVVINPGNPCGNVYSYQHLMKIAESAKKLGFLVIADEVYGHLAFGSKPFVPMGVFGSIVPVLTLGSLSKRWIVPGWRLGWFVTTDPSGSFKDPKIIERFKKYFDILGGPATFIQAAVPTILEQTDESFFKKTLNSLKNSSDICCDWIKEIPCIDSSHRPEGSMAMMVKLNLSLLEDVSDDIDFCFKLAREESVILLPGTAVGLKNWLRITFAADATSIEEAFKRIKCFYLRHAKTQYPTI | 390 ± 60 µM | 47.84 ± 1.72 s⁻¹
